Tests used:
[1] = molecular target: FUS 6F-G variant (Phe residues of the RBD substituted to Gly) (UniProt P35637); assay: DLS; settings: 10 µM FUS (RBD, F/Y-G/S), read off a plot
[2] = molecular target: FUS 6Y-S variant (Tyr residues of the RBD substituted to Ser) (UniProt P35637); assay: DLS; settings: 10 µM FUS (RBD, F/Y-G/S), read off a plot
[3] = molecular target: FUS (10D/4E-G) variant (10 Asp and 4 Glu of the RBD substituted to Gly) (UniProt P35637); assay: DLS; settings: 250 nM FUS (RBD, D/E-G), read off a plot
[4] = molecular target: FUS(Y-S) with 10 Tyr of the PLCD substituted to Ser (UniProt P35637); assay: DLS; settings: 10 µM FUS (PLD, Y-S), read off a plot
[5] = molecular target: FUS(Y-S) with 18 Tyr of the PLCD substituted to Ser (UniProt P35637); assay: DLS; settings: 10 µM FUS (PLD, Y-S), read off a plot
[6] = molecular target: FUS(R-G) with 24 Arg of the RBD substituted to Gly (UniProt P35637); assay: DLS; settings: 10 µM FUS (RBD, R-G), read off a plot
[7] = molecular target: FUS(R-K) with 24 Arg of the RBD substituted to Lys (UniProt P35637); assay: DLS; settings: read off a plot
[8] = molecular target: FUS(Y-S) with 27 Tyr of the PLCD substituted to Ser (UniProt P35637); assay: DLS; settings: 10 µM FUS (PLD, Y-S), read off a plot
[9] = molecular target: T1, SNAP-tagged FUS (Fused in Sarcoma), P35637; assay: nanoparticle tracking analysis (NTA); sub-saturated solutions of one protein in 100 mM KCl and 100 mM KGlu, 25 °C, recorded 6 min after preparation; abundance of mesoscale clusters; settings: remark: other sources report otherwise
T1 chain: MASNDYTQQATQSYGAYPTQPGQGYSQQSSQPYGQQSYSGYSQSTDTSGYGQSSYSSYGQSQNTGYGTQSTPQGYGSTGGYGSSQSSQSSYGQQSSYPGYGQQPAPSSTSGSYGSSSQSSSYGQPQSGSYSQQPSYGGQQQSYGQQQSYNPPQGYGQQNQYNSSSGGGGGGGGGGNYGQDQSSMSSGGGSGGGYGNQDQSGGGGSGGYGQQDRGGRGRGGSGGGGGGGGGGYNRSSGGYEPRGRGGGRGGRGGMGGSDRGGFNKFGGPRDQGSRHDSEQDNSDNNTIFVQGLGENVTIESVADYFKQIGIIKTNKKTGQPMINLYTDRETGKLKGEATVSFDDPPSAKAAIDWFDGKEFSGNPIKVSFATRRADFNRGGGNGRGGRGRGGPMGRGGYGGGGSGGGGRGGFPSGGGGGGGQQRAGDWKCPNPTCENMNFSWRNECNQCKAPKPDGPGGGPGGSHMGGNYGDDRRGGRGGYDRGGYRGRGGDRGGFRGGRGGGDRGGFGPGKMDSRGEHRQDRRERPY

wild-type FUS 6F-G
response ([1]; KCl buffer): 1.2 Mcps
response ([1]; KGlu buffer): 1.7 Mcps

wild-type FUS 6Y-S
response ([2]; KCl buffer): 0.49 Mcps
response ([2]; KGlu buffer): 1.4 Mcps

wild-type FUS 10D/4E-G
response ([3]; KCl buffer): 3.2 Mcps
response ([3]; KGlu buffer): 3.8 Mcps

wild-type FUS 10Y-S
response ([4]; KCl buffer): 0.81 Mcps
response ([4]; KGlu buffer): 1.9 Mcps

wild-type FUS 18Y-S
response ([5]; KCl buffer): 0.79 Mcps
response ([5]; KGlu buffer): 1.3 Mcps

wild-type FUS 24R-G
response ([6]; KCl buffer): 1.2 Mcps
response ([6]; KGlu buffer): 1.8 Mcps

wild-type FUS 24R-K
response ([7]; 1 µM FUS (24R-K), KCl buffer): 0.13 Mcps
response ([7]; 1 µM FUS (24R-K), KGlu buffer): 1.9 Mcps
response ([7]; 2 µM FUS (24R-K), KCl buffer): 0.32 Mcps
response ([7]; 2 µM FUS (24R-K), KGlu buffer): 2.4 Mcps
response ([7]; 3 µM FUS (24R-K), KCl buffer): 1.1 Mcps
response ([7]; 3 µM FUS (24R-K), KGlu buffer): 3.8 Mcps
response ([7]; 4 µM FUS (24R-K), KCl buffer): 1.4 Mcps
response ([7]; 4 µM FUS (24R-K), KGlu buffer): 3.9 Mcps

wild-type FUS 27Y-S
response ([8]; KCl buffer): 0.74 Mcps
response ([8]; KGlu buffer): 0.86 Mcps

B1: SNAP-tagged FUS (Fused in Sarcoma), P35637 1-526 (natural protein)
chain: MASNDYTQQATQSYGAYPTQPGQGYSQQSSQPYGQQSYSGYSQSTDTSGYGQSSYSSYGQSQNTGYGTQSTPQGYGSTGGYGSSQSSQSSYGQQSSYPGYGQQPAPSSTSGSYGSSSQSSSYGQPQSGSYSQQPSYGGQQQSYGQQQSYNPPQGYGQQNQYNSSSGGGGGGGGGGNYGQDQSSMSSGGGSGGGYGNQDQSGGGGSGGYGQQDRGGRGRGGSGGGGGGGGGGYNRSSGGYEPRGRGGGRGGRGGMGGSDRGGFNKFGGPRDQGSRHDSEQDNSDNNTIFVQGLGENVTIESVADYFKQIGIIKTNKKTGQPMINLYTDRETGKLKGEATVSFDDPPSAKAAIDWFDGKEFSGNPIKVSFATRRADFNRGGGNGRGGRGRGGPMGRGGYGGGGSGGGGRGGFPSGGGGGGGQQRAGDWKCPNPTCENMNFSWRNECNQCKAPKPDGPGGGPGGSHMGGNYGDDRRGGRGGYDRGGYRGRGGDRGGFRGGRGGGDRGGFGPGKMDSRGEHRQDRRERPY
modifications: here or on the partner: AF488 or AF647 label on the copies used in smFRET and FCS (FUS-SNAP-AF488, FUS-SNAP-AF647); unlabelled in DLS and NTA; AF488 or AF647 label on the copies used in smFRET and FCS (FUS-SNAP-AF488, FUS-SNAP-AF647); unlabelled in DLS and NTA
relative abundance of mesoscale clusters (100 mM KCl) [9]: 0.2 to 0.4%

Reference: PMC11116469
